Source: US20170129961A1 (Amgen, published 2017)
Substitutions are numbered along the chain they refer to.

T1: human CD70 (human, UniProt P32970 1-193)
T1 construct: also called hu CD70; CD27L
T1 sequence: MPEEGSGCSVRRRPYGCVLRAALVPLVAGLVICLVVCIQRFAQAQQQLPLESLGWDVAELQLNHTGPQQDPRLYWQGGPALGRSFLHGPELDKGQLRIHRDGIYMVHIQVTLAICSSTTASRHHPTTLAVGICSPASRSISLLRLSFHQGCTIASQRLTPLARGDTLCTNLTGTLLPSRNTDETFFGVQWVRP

T2: full-length mouse CD70 with C-terminal V5 tag (mouse, UniProt O55237 1-195)
T2 construct: On transfected CHO cells; also called murine CD70
T2 sequence: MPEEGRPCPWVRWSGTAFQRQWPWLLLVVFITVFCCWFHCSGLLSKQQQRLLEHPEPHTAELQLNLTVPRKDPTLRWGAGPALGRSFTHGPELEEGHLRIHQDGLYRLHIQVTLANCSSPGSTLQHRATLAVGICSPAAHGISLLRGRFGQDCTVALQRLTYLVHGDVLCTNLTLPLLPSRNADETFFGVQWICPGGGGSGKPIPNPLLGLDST

B1: CD70-1 (scFv)
scFv: QVQLVESGGGVVQPGRSLRLSCAASGFTFSTYGMHWVRQAPGKGLEWVAVIWYDGSNKYYGDSVKGRFTISRDNSKNTLYLQMNSLRAEDTAVYYCARDNSHYYYGMDVWGQGTTVTVSSGGGGSGGGGSGGGGSQSVLTQPPSVSGAPGQRVTISCTGSSSNIGAGYDVNWYQQFPGTAPKLLIYVNNNRPSGVPDRFSGSTSGTSASLAITGLQAEDEADYYCQSYDTSLSASVFGGGTRLTVLS
B2: CD70-2 (scFv)
scFv: QVQLVESGGGVVQPGRSLRLSCAASGFTFSSYGMHWVRQAPGKGLEWVAVIWYDGSDKYFADSVKGRFTISRDNSKNTLYLQMNSLRAEDTAVYYCARDGIAGARYVYFDYWGQGTLVTVSSGGGGSGGGGSGGGGSDIQMTQSPSSLSASVGDRVTITCRASQGISNYLAWFQQKPGKAPKSLIYAASSLQGGVPSKFSGSGSGTDFTLTISSLQPEDFATYYCQQYYNYPFTFGPGTTVDIK
B3: CD70-8 (scFv)
scFv: B2 scFv with G44C, P237C
B4: CD70-3 (scFv)
scFv: QEQLVESGGGVVQPGRSLRLSCAASGFTFSSYGMHWVRQAPGKGLEWVAVTWYDGSNKYYGDSVKGRFTISRDNSKNTLYLQMNSLRAEDTAVYYCARDLLRGVKGYAMDVWGQGTTVTVSSGGGGSGGGGSGGGGSEIVLTQSPGTLSLSPGERATLSCRASQSLRRIYLAWYQQKPGQAPRLLIYDVFDRATGIPDRFSGGGSGTDFTLTISRLEPEDFAVYYCQQYSDSPFTFGPGTKVDIK
notes: As m32
B5: CD70-4 (scFv)
scFv: QVQLVQSGAEVKKPGASVKVSCKASGYTFTSYGISWVRQAPGQGLEWMGWISAYNGYTHYAQKLQGRVTMTTDTSTSTAYMELRSLRSDDTAVYYCARDYGGNDYYGMDVWGQGTTVTVSSGGGGSGGGGSGGGGSQSVLTQPPSASGTPGQRVTISCSGSSSNIGINYVYWYQQLPGTAPKLLIYRSDQRPSGVPDRFSGSKSGTSASLALSGLRSEDEADYYCAAWDDSLSGVVFGGGTKLTVL
notes: As m32
B6: CD70-9 (scFv)
scFv: B5 scFv with G44C, G239C
notes: As m32
B7: CD70-10 (scFv)
scFv: QVQLQESGPGLVKPSQTLSLTCTVSGDSIISGGYYWSWIRQHPGKCLEWIGYIFYSGSTDYNPSLKSRVTISVDTSKNQFSLKLSSVTAADTAVYYCARSGYSYALFDHWGQGTLVTVSSGGGGSGGGGSGGGGSDIQMTQSPSSLSASVGDRVTISCRASQFIGRYFNWYQQQPGKAPKVLIYAESSLQSGVPSRFSGSGSGTEFTLTISSLQPEDFARYYCQQSYSTPWTFGCGTKVEIK
notes: As m32
B8: CD70-5 (scFv)
scFv: B7 scFv with C46G, C235Q
notes: As m32
B9: CD70-6 (scFv)
scFv: B7 scFv with W231F
notes: As m32
B10: CD70-7 (scFv)
scFv: QVHLVQSGAEVKKPGASVRVSCKASGYTFTSYYLHWVRQAPGQCLEWMGIVDPSGGSTSYDQKFQGRFTMTRDTSTSTVYMELSSLRSEDTAVYYCARDYGDYVFDYWGQGTLVTVSSGGGGSGGGGSGGGGSQSVLTQPPSASGTPGQRVTISCSGSSSNIGTNTVNWYQQLPGTAPQLLIYINNQRPSGVPDRFSGSKSGTSASLAISGLQSEDEADYYCATWDDSLNGPVVGCGTKLTVL
notes: As m32
B11: CD70-11 (scFv)
scFv: QVQLVESGGGVVQPGRSLRLSCAASGFTFSTYGMHWVRQAPGKCLEWVAVIWYDGSNKYYGDSVKGRFTISRDNSKNTLYLQMNSLRAEDTAVYYCARDNSHYYYGMDVWGQGTTVTVSSGGGGSGGGGSGGGGSQSVLTQPPSVSGAPGQRVTISCTGSSSNIGAGYDVNWYQQFPGTAPKLLIYVNNNRPSGVPDRFSGSTSGTSASLAITGLQAEDEADYYCQSYETSLSASVFGCGTRLTVL
notes: As m32
B12: CD70-12 (scFv)
scFv: QAQLVESGGGVVQPGRSLRLSCAASGFTFSYYGMHWVRQAPGKCLEWVAVIWYDGSNKYYADSVKGRFTISRDNSKNTLYLQMNSLRAEDTAVYYCARDREMGSRGDFDYWGQGTLVTVSSGGGGSGGGGSGGGGSDIQMTQSPSSLSASVGDRVTITCRASQGINNYLAWFQQKPGKAPKSLIYAVSILQSGVPSKFSGSGSGTDFTLTIGNLQPEDFATYYCQQYNFYPFSFGCGTKVDIK
notes: As m32
B13: CD70-13 (scFv)
scFv: EVQLLESGGGLVQPGGSLRLSCAASGFTFSSYAMSWVRQAPGKGLEWVSVISGSGGRPNYADSVKGRFTISRDNSKNTLYLQMNSLRDEDTAVYYCAKVDYSNYLFFDYWGQGTLVTVSSGGGGSGGGGSGGGGSEIVLTQSPGTLSLSPGEGATLSCRAGQSVRSSYLGWYQQKPGQAPRLLIYGASSRATGIPDRFSGSGSGTDFTLTISRLEPEDFAVYYCQQYGYSPPTFGGGTKLEIK
B14: CD70-14 (scFv)
scFv: EVQLLESGGGLVQPGGSLKLSCAASGFTFSIYAMSWVRQAPGKGLEWVSAISGSGGSTFYADSVKGRFTISRDNSKNTLYLQMNSLRAEDTAVYYCAKHDYSNYPYFDYWGQGTLVTVSSGGGGSGGGGSGGGGSEIVLTQSPGTLSLSPGERATLSCRASQSVRSSYLAWYQQKPGQAPRLLIYGASSRATGIPDRFSGSGSGTDFTLTISRLEPEDFAVYYCQQYGDLPFTFGPGTKLEIK
notes: As m32
B15: CD70-16 (scFv)
scFv: B14 scFv with L11M, K19R, I31S, S57R, K65E, V164I
notes: As m32
B16: CD70-18 (scFv)
scFv: EVQLLESGGGLVQPGGSLRLSCAASGFTFSSYAMSWVRQAPGKGLEWVSLISGSGGRTHYADSVKGRFTISRDNSKNTLYLQMNSLRAEDTAVYYCAKHDYSNYPYFDYWGQGTLVTVSSGGGGSGGGGSGGGGSEIVLTQSPGTLSLSPGERATLSCRASQSVRSTYLAWYQQKPGQAPRLLIYDASSRATGIPDRFSGSGSGTDFTLTISRLEPEDFAVYFCQQYGSSPPTFGGGTKLEIK
notes: As m32
B17: CD70-19 (scFv)
scFv: B14 scFv with K19R, I31T, Y80S
notes: As m32
B18: CD70-21 (scFv)
scFv: B14 scFv with L11M, K19R, I31T, S57R, K65E, S167T, Y223S
notes: As m32
B19: CD70-23 (scFv)
scFv: B14 scFv with K19R, I31V, A50T, G53D, S85R, K98R, P105A, L240V
notes: As m32
B20: CD70-24 (scFv)
scFv: B14 scFv with V12A, K19R, I31S, Y95F, L240V
notes: As m32
B21: CD70-25 (scFv)
scFv: B14 scFv with L11M, K19R, I31S, S57R, K65E, S167N, L240V
notes: As m32
B22: CD70-27 (scFv)
scFv: B14 scFv with K19R, I31T, S57G, V164I, S167N, D229S, L230S, L240V
notes: As m32
B23: CD70-28 (scFv)
scFv: B16 scFv with S31T, H59Y, T167N, D186G, S189N, F223S, S229I, L240V
notes: As m32
B24: CD70-32 (scFv)
scFv: EVQLLESGGGMVQPGGSLRLSCAASGFTFSSYAMSWVRQAPGKGLEWVSAISGSGGRTFYADSVEGRFTISRDNSKNTLYLQMNSLRAEDTAVYYCTKHDYSNYPYFDYWGQGTLVTVSSGGGGSGGGGSGGGGSEIVLTQSPGTLSLSPGERATLSCRASQGVRSDYLAWYQQKPGQAPRLLIYGASSRATGIPDRFSGSGSGTDFTLTISRLEPEDFAVYHCQQYGSTPPTFGGGTKVEIK
notes: As m32

What was measured:
human CD70 = molecular target: T1, human CD70; assay: FACS on CHO cells, periplasmic scFv
Experimental: (§1) All antibodies were diluted in PBS/1.5% FCS. As negative control, cells were incubated with PBS/2% FCS instead of the periplasmic extract. The samples were measured by flow cytometry.

[1] = molecular target: T2, full-length mouse CD70 with C-terminal …; assay: FACS on CHO cells, periplasmic scFv
Experimental: as §1

Binder | binding result (human CD70) | binding result [1]
B1 | binds | no binding
B2 | binds | no binding
B3 | binds | no binding
B4 | binds | no binding
B5 | binds | no binding
B6 | binds | no binding
B7 | binds | no binding
B8 | binds | no binding
B9 | binds | no binding
B10 | binds | no binding
B11 | binds | no binding
B12 | binds | no binding
B13 | binds | no binding
B14 | binds | no binding
B15 | binds | no binding
B16 | binds | no binding
B17 | binds | no binding
B18 | binds | no binding
B19 | binds | no binding
B20 | binds | no binding
B21 | binds | no binding
B22 | binds | no binding
B23 | binds | no binding
B24 | binds | no binding
